Test: soluble fraction after stress (log2 fold change); higher = more stays soluble; pooled small domains, quantitative proteomics
Conditions: stress: 50 degC
Outline: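 The stress applied to every library was 50°C. These custom libraries of small protein domains were pooled and measured at high throughput with quantitative proteomics as the read-out. Aggregation propensity is expressed as the base-two logarithm of the fold change in how much of each protein remains soluble. The higher the value, the more of that protein stays in solution.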

| Sequence | soluble fraction (log2) |
| --- | --- |
| HMVWPETEAIVTEDFIGKKRSEVQQEGVIFEFFGEGDMVIDQLPRGGVTLNESGRVWIYLGEDTF | -0.423 |
| HMVYFAKNIRHLRRLRGMSQELLAAELDITRARLGAYEESRSEPPLHLLIKISEFFKLPVDIIVKNDLTKS | -3.66 |
| HMVYFDDEELDRFAGRAADSYTSDETDEFRDVMLTLLPADVMPWTQSIEMRGILLPEQLRDELLML | -0.764 |
| HMVYVPTKAEVSQQFQDASKARFDERYAIVELADGRRTMAPLAFLTKADHAWLKQLASTSPLPKGK | 0.0196 |
| HMWAQSVSLHGLLGRQALLIVDGKPPRAVAPGQTHLGVTVLSTDEDRAVVALAGGQRLTLRVGESPVSVG | -0.0812 |
| HMWMEKEELLWNDIIRGGVERGELREDTDIQEAAALFRQVFIGLAYQMSFSDGLDVGILRKRFHHIYGLLT | 0.0187 |
| HMWNKGETKIPTQAQNELIKRRQAGATWTSLSEWLKATYGIDIHRTNIQRWYDKEVYLDQEN | -0.316 |
| HMWNPVLVVRGDFPKDLATTLLKMIFAQKEALNPHILFQNLLRTDNITFRESYPYHSASKTMFRF | -0.148 |
| HMWPQIAGFADRFGLSDTERRIVTLMSHGRSRKIIASTLGYSQNTIRNYTRNIYAKAGVHSKQELLDLLDP | -2.13 |
| HMWPTPRTWSALMNELNLYKENHGYANIVDIPSEKIRRMADGIIGEDMAVRYVAFLQSHASS | -1.6 |
| HMWQKGEPAITGLKRISKPGLRIYSKNDELPIVYGNRGIAVISTNKGVMTGIEAKRSGVGGEVLFYV | -0.045 |
| HMWSAREQVVNSLREAILTSELKAGERLVLSDLSARLGVSVTPIREALQSLEREGLVQLMPHQEAVVV | 0.155 |
| HMWVETITTKAGITKYKFQERYTDTYSGKTKRVSVTYTSNSRQAYKLAQAELQKKIDLATNTD | -0.849 |
| HMYAHLGKNLEVVINKALAQEDPEKKAGFAHHIAYYMKLAYSNWHKELVHDDAIRSELDTITGGELEFSN | 0.499 |
| HMYAHTPEMEAMNELGLEPPVTLDEIKKTYKTLVKKYHPDHNKEDPEAEEKLKKVNMAYTILKVAYTEFEK | -0.147 |
| HMYALGIPVSQYRRTTQVLGHESSYPIAYEDEKQDDDFYLFKFPNIDEYDFKKIVILLKQNGITT | -1.61 |
| HMYDNTVTKYVNSLSVYVRKGPSTSDEIVTSLIKDTDVTVVGENGEWYKIKYKEFEGYIYKNLLSDNKT | -0.254 |
| HMYDRIKLLKLREKRGLTQYELAEKAGISVVTLNKIETSDMAKPFASTLKKIALALGVGIEELS | -0.121 |
| HMYEDGGAFLKAEREKYGLTLTDIYEHTHIPVRKLKAYEMHEEEMPDRTRALLELYFDQVAYEYES | -0.443 |
| HMYEDIDSAYRILEINSTVSNQEIKNAYRRMAKKYHPDKVAHLGVEHQKGAEEKFKKVQEAYILIKKRRG | -0.557 |
| HMYEENFSKIKNDISTIFKRHKISFTNNFISHLSSVFNTDSLTNKMELEKLDSFLINNKKVTENELLKFII | -0.025 |
| HMYEINEIIRERRLKKGLTQAQVAKYLGVSAPAVNKWEKGTTYPDLVLLPALARLLDTDLTTLLSF | -1.38 |
| HMYEVVPNMRGLTYNQATAALAAAGLKVELSDSIYDEHTQPGTVLDQSPRPNTKVKPNRVVYLTVNAF | -0.739 |
| HMYFDDEELDTYKGRASNAYSPDETAQFEEVMTTMRPDEVAAWLRSLQLRGINLPDELKDEAIMLVE | -0.0866 |
| HMYFGNSLFQARKRSGLSQEGVAEKLGVSRQTVSKWETGETVPDIYQSKKMARLYGVSLDEL | 0.0951 |
| HMYFNTADLKADSIHYGSTEQSVIKILGEPEYRETFVDNNVSYELFSYKGNLLLSFVENSLVSL | 0.0896 |
| HMYGTERILAQLANYGIPNKLAFQIQDFYKEETLQIVEQQPYRLVEDIQGMGFKIADQLAEELGI | -0.317 |
| HMYIDLHEIWKSLTDEEQTVVKLLETEPAHVDTLIENSQIPASRILATLTLLEVRGIVKRLPGRMFSLAD | -1.45 |
| HMYIENIGDYLKSHDIKPSYQRIKVFEYLMQHKNHPTVDMIYKSLVDEIPTLSKTTVYNTLNLFIEKQI | -1.74 |
| HMYITGAVIRKLREKNNITQLQLAERLRVSDKTISKWETGKGYPDITLLEPIAKTFSVSVTELISGDI | -1.32 |

— the domain aggregation screens of Martell et al. (2025)
